Columns and labels:
[1] = target: T1, human 4-1BB expressed with a C-terminal murine Fc tag (human, UniProt Q07011 24-186); assay: SPR Biacore 4000, h4-1BB.mFc captured by anti-mouse Fc, antibody as analyte, 25 C
T1 construct: also called h4-1BB.mFc; REGN3585; not shown: C-terminal murine Fc tag
Description: Equilibrium dissociation constants (KD values) for human 4-1BB expressed with a C-terminal murine Fc tag (h4-1BB.mFc, REGN3585) binding to purified anti-CD38×4-1BB 1+2 antibodies were determined using a real-time surface plasmon resonance biosensor using a Biacore 4000 instrument. […] All Biacore binding studies were performed in a buffer composed of 0.01M HEPES pH 7.4, 0.15M NaCl, 3 mM EDTA, 0.05% v/v Surfactant P20 (HBS-EP running buffer). Different concentrations of CD38×4-1BB 1+2 constructs prepared in HBS-EP running buffer (ranging from 100 to 6.25 nM in 4-fold serial dilutions) were injected over the h4-1BB.mFc (REGN3585) captured surface at a flow rate of 30 μL/minute. Antibody-reagent association was monitored for 5 minutes while dissociation in HBS-EP running buffer was monitored for 10 minutes. At the end of each cycle, the h4-1BB.mFc capture surface was regenerated using a 40 sec injection of 10 mM glycine, pH 1.5. All binding kinetics experiments were performed at 25° C.
Kinetic association (kₐ) and dissociation (kd) rate constants were determined by fitting the real-time sensorgrams to a 1:1 binding model using Cytiva Insight curve fitting software. Binding dissociation equilibrium constants (KD) and dissociative half-lives (t/2) were calculated from the kinetic rate constants as: […]

human 4-1BB on cells = human 4-1BB on cells (human, UniProt Q07011 24-255); assay: cell-based or functional assay
Sequence of human 4-1BB on cells (Q07011 24-255): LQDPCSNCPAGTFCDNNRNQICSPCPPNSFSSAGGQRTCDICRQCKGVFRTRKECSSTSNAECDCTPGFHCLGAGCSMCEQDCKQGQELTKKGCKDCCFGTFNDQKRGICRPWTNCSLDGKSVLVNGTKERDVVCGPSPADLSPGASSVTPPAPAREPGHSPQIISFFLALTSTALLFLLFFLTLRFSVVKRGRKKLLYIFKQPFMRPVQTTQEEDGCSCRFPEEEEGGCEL

T1 sequence (Q07011 24-186 limits assumed): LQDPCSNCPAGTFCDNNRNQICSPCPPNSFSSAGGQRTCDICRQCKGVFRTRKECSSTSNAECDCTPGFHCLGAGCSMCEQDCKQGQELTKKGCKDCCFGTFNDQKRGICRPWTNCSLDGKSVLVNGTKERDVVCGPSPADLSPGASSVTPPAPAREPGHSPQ

B1: REGN7647 (bispecific antibody, human IgG4 S228P, kappa)
heavy 1: EVQLVESGGGLVQPGRSLRLSCGASGFTFDDYVMHWVRQIPGKGLEWVAGISWNSGSIGYADSVKGRFTISRDNAKNSLYLQMNSLRAEDTALYFCAKDHIDPYSSSLYYYYGMDVWGQGTTVTVSSASTKGPSVFPLAPCSRSTSESTAALGCLVKDYFPEPVTVSWNSGALTSGVHTFPAVLQSSGLYSLSSVVTVPSSSLGTKTYTCNVDHKPSNTKVDKRVESKYGPPGGGGSGGGGSGGGGSEVQLVESGGGLVQPGRSLRLSCGASGFTFDDYVMHWVRQIPGKGLEWVAGISWNSGSIGYADSVKGRFTISRDNAKNSLYLQMNSLRAEDTALYFCAKDHIDPYSSSLYYYYGMDVWGQGTTVTVSSASTKGPSVFPLAPCSRSTSESTAALGCLVKDYFPEPVTVSWNSGALTSGVHTFPAVLQSSGLYSLSSVVTVPSSSLGTKTYTCNVDHKPSNTKVDKRVESKYGPPCPPCPAPPVAGPSVFLFPPKPKDTLMISRTPEVTCVVVDVSQEDPEVQFNWYVDGVEVHNAKTKPREEQFNSTYRVVSVLTVLHQDWLNGKEYKCKVSNKGLPSSIEKTISKAKGQPREPQVYTLPPSQEEMTKNQVSLTCLVKGFYPSDIAVEWESNGQPENNYKTTPPVLDSDGSFFLYSRLTVDKSRWQEGNVFSCSVMHEALHNRFTQKSLSLSPGK
heavy 2: EVQLVESGGGLVQPGRSLRLSCAASGFTFDDYAMHWVRQAPGKGLEWVSGISWKSDNIGYADSVKGRFTISRDNAKNSLYLQMNSLRAEDTALYYCAKALGGWKFDYYYGMDVWGQGTTVTVSSASTKGPSVFPLAPCSRSTSESTAALGCLVKDYFPEPVTVSWNSGALTSGVHTFPAVLQSSGLYSLSSVVTVPSSSLGTKTYTCNVDHKPSNTKVDKRVESKYGPPCPPCPAPPVAGPSVFLFPPKPKDTLMISRTPEVTCVVVDVSQEDPEVQFNWYVDGVEVHNAKTKPREEQFNSTYRVVSVLTVLHQDWLNGKEYKCKVSNKGLPSSIEKTISKAKGQPREPQVYTLPPSQEEMTKNQVSLTCLVKGFYPSDIAVEWESNGQPENNYKTTPPVLDSDGSFFLYSRLTVDKSRWQEGNVFSCSVMHEALHNHYTQKSLSLSLGK
light: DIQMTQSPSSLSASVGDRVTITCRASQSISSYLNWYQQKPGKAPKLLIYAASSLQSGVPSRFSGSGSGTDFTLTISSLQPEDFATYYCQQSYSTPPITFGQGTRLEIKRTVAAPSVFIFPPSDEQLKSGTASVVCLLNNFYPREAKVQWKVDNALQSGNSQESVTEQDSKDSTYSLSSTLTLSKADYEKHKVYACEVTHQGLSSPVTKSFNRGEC
notes: 1+2 format, hIgG4P-PVA; The linker between the two 4-1BB Fabs is (G4S)3v15; also called CD38x4-1BB (1 + 2), (G4S)3v15; 26812P2 x 35333P2 (IN) + 35333P2 (OUT)
B1 was tested, and the “100 nM Ab Bind (RU)” value [1] was 206 RU, the Kd [1] was 0.56 nM and the koff [1] was 0.000351 s⁻¹. For the same binder, the kon [1] was 626000 M⁻¹ s⁻¹, the t½ [1] was 32.9 min and the “EC50 of IL-2 release, T cells + HEK293/CD20/CD38 + REGN2281” value (human 4-1BB on cells) was 0.0535 nM. For the same binder, the “EC50 of IL-2 release, T cells + MOLP-8 + REGN5458” value (human 4-1BB on cells) was 0.216 nM, the “EC50 of IL-2 release, T cells + NALM-6” value (human 4-1BB on cells) was 0.0485 nM and the “MAX IL-2 release, T cells + HEK293/CD20 + REGN2281” value (human 4-1BB on cells) was 61 pg/mL. For the same binder, the “MAX IL-2 release, T cells + HEK293/CD20/CD38 + REGN2281” value (human 4-1BB on cells) was 781 pg/mL, the “MAX IL-2 release, T cells + MOLP-8 + IsoC” value (human 4-1BB on cells) was 73 pg/mL and the “MAX IL-2 release, T cells + MOLP-8 + REGN5458” value (human 4-1BB on cells) was 66 pg/mL. The “MAX IL-2 release, T cells + NALM-6” value (human 4-1BB on cells) was 192 pg/mL.

— patent US20230416396A1 (Regeneron, published 2023)
